The target in this test is recombinant human PD-1 (product No. 10377-H08H, Beijing Yiqiao Shenzhou) (human, UniProt Q15116 25-167). The experiment in a line: ELISA, recombinant human PD-1 coated at 1 ug/mL, control antibody, anti-human IgG-HRP detection. (In general: In an ELISA, binding on a coated surface is turned into a signal by an enzyme label.)
recombinant human PD-1 (product No. 10377-H08H, Beijing Yiqiao Shenzhou), sequence (Q15116 25-167 limits assumed): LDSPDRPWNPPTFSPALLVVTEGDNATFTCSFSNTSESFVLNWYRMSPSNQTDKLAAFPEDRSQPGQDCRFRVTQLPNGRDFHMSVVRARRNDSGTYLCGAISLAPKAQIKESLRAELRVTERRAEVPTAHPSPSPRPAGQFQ

Experimental: The coating concentration was 1 μg/mL. The coating amount was 100 μL per well, and the coating was performed at 4° C. overnight. PBST washing was performed five times. The result was sealed at 300 μL/well using PBST containing 1% BSA, and subjected to incubation for 1 hour at 25° C. PBST washing was performed five times. […] PBST washing was performed five times. Subsequently, 100 μL of the horseradish peroxidase-labeled anti-human IgG antibody (product No. AP309P, available from Chemicon) diluted at 1:2,000 in PBST containing 1% BSA was then added to each well, and the cells were incubated for 1 hour at 25° C. PBST washing was performed five times. 100 μL of the colorimetric substrate TMB was added to each well, and color development was allowed to occur for 10 minutes at room temperature. Color development was stopped by adding 100 μL of 1 M H₂SO₄ to each well. The absorbance at 450 nm was read on a microplate reader.

B1: PD-1 monoclonal antibody (antibody, V domains shown)
VH: QVQLVQSGAEVKKPGSSVKVSCKASGGTFSSTAISWVRQAPGQGLEWMGGIWPSFGTASYAQKFQGRVTITADESTSTAYMELSSLRSEDTAVYYCARAEYSSTGIFDYWGQGTLVTVSS
VL: DIQMTQSPSSVSASVGDRVTITCRASQGISSWLAWYQQKPGKAPKLLISAASSLQSGVPSRFSGSGSGTDFTLTISSLQPEDFATYYCQQANHLPFTFGGGTKVEIK
notes: also called bivalent monoclonal antibody (anti-PD-1)
On to B1, for which the binding result is recorded as “binds”.

The record behind these values is US20210032343A1 (BEIJING HANMI PHARMACEUTICAL, published 2021).
